Laboratory results published in patent publication US20150344570A1 (published 2015).

T1: human FcγRIIb extracellular domain with C-terminal His tag (human, UniProt P31994 43-217)
T1 construct: extracellular domain; also called FcgRIIb; 2b; not shown: His tag attached to the C terminus
T1 sequence (looked up): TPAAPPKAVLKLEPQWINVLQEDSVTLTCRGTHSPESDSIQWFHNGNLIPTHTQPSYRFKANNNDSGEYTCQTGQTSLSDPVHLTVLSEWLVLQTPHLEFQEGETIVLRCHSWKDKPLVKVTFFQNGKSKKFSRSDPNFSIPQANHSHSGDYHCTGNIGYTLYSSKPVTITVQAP

B1: GpH7-A5/GpH7-B3 variant A327_12R/GpL16-k0 (antibody, human IgG1, kappa)
heavy 1: not shown
heavy 2: not shown
light: DIVMTQSPLSLPVTPGEPASISCQASESLVHSNRNTYLHWYLQKPGQSPQLLIYKVSNRFSGVPDRFSGSGSGTDFTLKISRVEAEDVGVYYCSQNTHVPPTFGQGTKVEIERTVAAPSVFIFPPSDEQLKSGTASVVCLLNNFYPREAKVQWKVDNALQSGNSQESVTEQDSKDSTYSLSSTLTLSKADYEKHKVYACEVTHQGLSSPVTKSFNRGEC
notes: He Ab: mutation in one H chain only; also called He Ab
B2: GpH7-B3 variant A327_09D/GpL16-k0 (antibody, human IgG1, kappa)
heavy: not shown
light: DIVMTQSPLSLPVTPGEPASISCQASESLVHSNRNTYLHWYLQKPGQSPQLLIYKVSNRFSGVPDRFSGSGSGTDFTLKISRVEAEDVGVYYCSQNTHVPPTFGQGTKVEIERTVAAPSVFIFPPSDEQLKSGTASVVCLLNNFYPREAKVQWKVDNALQSGNSQESVTEQDSKDSTYSLSSTLTLSKADYEKHKVYACEVTHQGLSSPVTKSFNRGEC
notes: also called Ho Ab A327_09D
B3: GpH7-B3 variant K326_07I/GpL16-k0 (antibody, human IgG1, kappa)
heavy: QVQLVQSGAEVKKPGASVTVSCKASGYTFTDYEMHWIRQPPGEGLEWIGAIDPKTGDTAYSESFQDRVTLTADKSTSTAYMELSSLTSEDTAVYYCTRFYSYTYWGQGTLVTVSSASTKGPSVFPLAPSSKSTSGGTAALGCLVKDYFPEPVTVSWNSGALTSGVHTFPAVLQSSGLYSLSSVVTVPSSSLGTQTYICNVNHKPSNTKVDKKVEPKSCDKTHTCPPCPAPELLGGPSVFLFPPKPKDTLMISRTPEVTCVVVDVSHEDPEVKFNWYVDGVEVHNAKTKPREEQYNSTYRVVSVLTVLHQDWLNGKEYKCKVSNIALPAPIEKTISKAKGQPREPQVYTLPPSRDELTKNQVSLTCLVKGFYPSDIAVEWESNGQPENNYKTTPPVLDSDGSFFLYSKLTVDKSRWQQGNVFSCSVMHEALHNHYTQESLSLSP
light: DIVMTQSPLSLPVTPGEPASISCQASESLVHSNRNTYLHWYLQKPGQSPQLLIYKVSNRFSGVPDRFSGSGSGTDFTLKISRVEAEDVGVYYCSQNTHVPPTFGQGTKVEIERTVAAPSVFIFPPSDEQLKSGTASVVCLLNNFYPREAKVQWKVDNALQSGNSQESVTEQDSKDSTYSLSSTLTLSKADYEKHKVYACEVTHQGLSSPVTKSFNRGEC
notes: also called Ho Ab K326_07I
B4: GpH7-B3 variant G236_04F/GpL16-k0 (antibody, human IgG1, kappa)
heavy: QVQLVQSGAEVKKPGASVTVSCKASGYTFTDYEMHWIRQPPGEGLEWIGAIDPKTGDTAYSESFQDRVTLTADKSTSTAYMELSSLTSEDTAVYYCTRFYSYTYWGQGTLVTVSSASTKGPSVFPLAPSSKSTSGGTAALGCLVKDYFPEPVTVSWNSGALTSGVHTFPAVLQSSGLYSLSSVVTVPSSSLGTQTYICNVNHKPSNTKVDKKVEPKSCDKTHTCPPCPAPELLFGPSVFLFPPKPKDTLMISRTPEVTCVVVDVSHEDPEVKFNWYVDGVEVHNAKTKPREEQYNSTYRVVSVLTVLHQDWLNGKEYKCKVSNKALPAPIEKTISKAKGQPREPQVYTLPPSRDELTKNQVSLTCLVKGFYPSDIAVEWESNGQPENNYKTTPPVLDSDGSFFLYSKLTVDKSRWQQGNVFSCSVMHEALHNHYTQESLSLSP
light: DIVMTQSPLSLPVTPGEPASISCQASESLVHSNRNTYLHWYLQKPGQSPQLLIYKVSNRFSGVPDRFSGSGSGTDFTLKISRVEAEDVGVYYCSQNTHVPPTFGQGTKVEIERTVAAPSVFIFPPSDEQLKSGTASVVCLLNNFYPREAKVQWKVDNALQSGNSQESVTEQDSKDSTYSLSSTLTLSKADYEKHKVYACEVTHQGLSSPVTKSFNRGEC
notes: also called Ho Ab G236_04F
B5: GpH7-B3 variant E333_08L/GpL16-k0 (antibody, human IgG1, kappa)
heavy: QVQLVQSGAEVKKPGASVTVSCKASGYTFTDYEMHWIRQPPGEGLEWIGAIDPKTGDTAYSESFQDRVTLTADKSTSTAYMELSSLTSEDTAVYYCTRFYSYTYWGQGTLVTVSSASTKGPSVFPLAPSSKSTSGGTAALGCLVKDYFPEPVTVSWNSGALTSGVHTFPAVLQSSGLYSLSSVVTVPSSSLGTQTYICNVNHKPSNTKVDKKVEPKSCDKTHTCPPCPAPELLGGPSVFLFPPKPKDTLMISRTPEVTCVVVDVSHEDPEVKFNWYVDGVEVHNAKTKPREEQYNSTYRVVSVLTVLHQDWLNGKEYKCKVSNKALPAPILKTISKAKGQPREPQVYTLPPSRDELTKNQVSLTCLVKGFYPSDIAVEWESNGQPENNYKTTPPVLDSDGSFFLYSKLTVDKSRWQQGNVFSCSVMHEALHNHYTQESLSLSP
light: DIVMTQSPLSLPVTPGEPASISCQASESLVHSNRNTYLHWYLQKPGQSPQLLIYKVSNRFSGVPDRFSGSGSGTDFTLKISRVEAEDVGVYYCSQNTHVPPTFGQGTKVEIERTVAAPSVFIFPPSDEQLKSGTASVVCLLNNFYPREAKVQWKVDNALQSGNSQESVTEQDSKDSTYSLSSTLTLSKADYEKHKVYACEVTHQGLSSPVTKSFNRGEC
notes: also called Ho Ab E333_08L
B6: GpH7-B3 variant K326_01G/GpL16-k0 (antibody, human IgG1, kappa)
heavy: not shown
light: DIVMTQSPLSLPVTPGEPASISCQASESLVHSNRNTYLHWYLQKPGQSPQLLIYKVSNRFSGVPDRFSGSGSGTDFTLKISRVEAEDVGVYYCSQNTHVPPTFGQGTKVEIERTVAAPSVFIFPPSDEQLKSGTASVVCLLNNFYPREAKVQWKVDNALQSGNSQESVTEQDSKDSTYSLSSTLTLSKADYEKHKVYACEVTHQGLSSPVTKSFNRGEC
notes: also called Ho Ab K326_01G
B7: GpH7-B3 variant E333_13S/GpL16-k0 (antibody, human IgG1, kappa)
heavy: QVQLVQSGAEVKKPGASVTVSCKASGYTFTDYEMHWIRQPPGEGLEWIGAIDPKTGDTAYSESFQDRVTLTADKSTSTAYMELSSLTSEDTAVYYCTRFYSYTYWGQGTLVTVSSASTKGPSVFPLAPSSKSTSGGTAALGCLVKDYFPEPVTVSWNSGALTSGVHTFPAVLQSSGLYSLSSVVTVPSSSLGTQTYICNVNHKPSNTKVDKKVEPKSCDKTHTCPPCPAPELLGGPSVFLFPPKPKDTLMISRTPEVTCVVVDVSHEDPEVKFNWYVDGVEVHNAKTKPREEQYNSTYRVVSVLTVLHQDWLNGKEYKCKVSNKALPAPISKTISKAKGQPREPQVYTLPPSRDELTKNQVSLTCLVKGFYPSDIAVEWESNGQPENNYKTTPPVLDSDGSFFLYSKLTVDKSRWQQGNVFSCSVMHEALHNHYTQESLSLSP
light: DIVMTQSPLSLPVTPGEPASISCQASESLVHSNRNTYLHWYLQKPGQSPQLLIYKVSNRFSGVPDRFSGSGSGTDFTLKISRVEAEDVGVYYCSQNTHVPPTFGQGTKVEIERTVAAPSVFIFPPSDEQLKSGTASVVCLLNNFYPREAKVQWKVDNALQSGNSQESVTEQDSKDSTYSLSSTLTLSKADYEKHKVYACEVTHQGLSSPVTKSFNRGEC
notes: also called Ho Ab E333_13S
B8: GpH7-B3 variant I336_18N/GpL16-k0 (antibody, human IgG1, kappa)
heavy: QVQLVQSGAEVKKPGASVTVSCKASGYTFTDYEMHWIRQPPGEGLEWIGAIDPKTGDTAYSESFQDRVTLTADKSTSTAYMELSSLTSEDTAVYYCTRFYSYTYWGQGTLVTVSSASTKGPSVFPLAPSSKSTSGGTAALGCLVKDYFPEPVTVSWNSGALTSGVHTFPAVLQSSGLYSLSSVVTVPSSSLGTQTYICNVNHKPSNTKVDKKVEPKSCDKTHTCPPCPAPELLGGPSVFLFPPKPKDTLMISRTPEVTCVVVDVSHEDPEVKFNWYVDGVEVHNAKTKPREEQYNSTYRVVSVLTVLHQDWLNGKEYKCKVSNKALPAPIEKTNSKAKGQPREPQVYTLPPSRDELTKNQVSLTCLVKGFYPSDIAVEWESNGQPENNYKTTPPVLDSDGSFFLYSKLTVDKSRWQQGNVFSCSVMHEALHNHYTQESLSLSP
light: DIVMTQSPLSLPVTPGEPASISCQASESLVHSNRNTYLHWYLQKPGQSPQLLIYKVSNRFSGVPDRFSGSGSGTDFTLKISRVEAEDVGVYYCSQNTHVPPTFGQGTKVEIERTVAAPSVFIFPPSDEQLKSGTASVVCLLNNFYPREAKVQWKVDNALQSGNSQESVTEQDSKDSTYSLSSTLTLSKADYEKHKVYACEVTHQGLSSPVTKSFNRGEC
notes: also called Ho Ab I336_18N
B9: GpH7-B3 variant E333_14T/GpL16-k0 (antibody, human IgG1, kappa)
heavy: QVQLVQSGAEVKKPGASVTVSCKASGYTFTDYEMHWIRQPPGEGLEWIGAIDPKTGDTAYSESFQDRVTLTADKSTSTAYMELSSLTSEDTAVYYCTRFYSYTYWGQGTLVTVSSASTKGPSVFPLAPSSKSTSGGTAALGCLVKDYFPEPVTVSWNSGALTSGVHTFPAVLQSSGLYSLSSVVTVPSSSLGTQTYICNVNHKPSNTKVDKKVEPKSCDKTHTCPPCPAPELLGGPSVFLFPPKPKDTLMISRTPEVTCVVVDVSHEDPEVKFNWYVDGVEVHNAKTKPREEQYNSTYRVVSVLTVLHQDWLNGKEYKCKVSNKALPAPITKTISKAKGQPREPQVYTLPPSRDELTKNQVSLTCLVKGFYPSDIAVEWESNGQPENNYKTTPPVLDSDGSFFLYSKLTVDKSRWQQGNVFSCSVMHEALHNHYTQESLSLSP
light: DIVMTQSPLSLPVTPGEPASISCQASESLVHSNRNTYLHWYLQKPGQSPQLLIYKVSNRFSGVPDRFSGSGSGTDFTLKISRVEAEDVGVYYCSQNTHVPPTFGQGTKVEIERTVAAPSVFIFPPSDEQLKSGTASVVCLLNNFYPREAKVQWKVDNALQSGNSQESVTEQDSKDSTYSLSSTLTLSKADYEKHKVYACEVTHQGLSSPVTKSFNRGEC
notes: also called Ho Ab E333_14T
B10: GpH7-B3 variant I336_10E/GpL16-k0 (antibody, human IgG1, kappa)
heavy: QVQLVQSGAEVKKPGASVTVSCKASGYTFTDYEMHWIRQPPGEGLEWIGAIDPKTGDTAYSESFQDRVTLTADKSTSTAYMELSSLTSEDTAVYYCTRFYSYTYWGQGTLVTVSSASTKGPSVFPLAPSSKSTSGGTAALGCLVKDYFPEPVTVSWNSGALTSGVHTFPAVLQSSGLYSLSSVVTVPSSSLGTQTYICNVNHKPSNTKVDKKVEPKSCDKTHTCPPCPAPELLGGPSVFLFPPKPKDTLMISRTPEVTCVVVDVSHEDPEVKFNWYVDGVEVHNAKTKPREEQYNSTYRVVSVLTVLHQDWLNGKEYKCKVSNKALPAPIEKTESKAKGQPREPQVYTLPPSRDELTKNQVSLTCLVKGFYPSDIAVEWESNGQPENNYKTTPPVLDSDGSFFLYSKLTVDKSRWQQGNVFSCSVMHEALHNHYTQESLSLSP
light: DIVMTQSPLSLPVTPGEPASISCQASESLVHSNRNTYLHWYLQKPGQSPQLLIYKVSNRFSGVPDRFSGSGSGTDFTLKISRVEAEDVGVYYCSQNTHVPPTFGQGTKVEIERTVAAPSVFIFPPSDEQLKSGTASVVCLLNNFYPREAKVQWKVDNALQSGNSQESVTEQDSKDSTYSLSSTLTLSKADYEKHKVYACEVTHQGLSSPVTKSFNRGEC
notes: also called Ho Ab I336_10E
B11: GpH7-B3 variant K326_12R/GpL16-k0 (antibody, human IgG1, kappa)
heavy: not shown
light: DIVMTQSPLSLPVTPGEPASISCQASESLVHSNRNTYLHWYLQKPGQSPQLLIYKVSNRFSGVPDRFSGSGSGTDFTLKISRVEAEDVGVYYCSQNTHVPPTFGQGTKVEIERTVAAPSVFIFPPSDEQLKSGTASVVCLLNNFYPREAKVQWKVDNALQSGNSQESVTEQDSKDSTYSLSSTLTLSKADYEKHKVYACEVTHQGLSSPVTKSFNRGEC
notes: also called Ho Ab K326_12R
B12: GpH7-B3 variant A330_19Q/GpL16-k0 (antibody, human IgG1, kappa)
heavy: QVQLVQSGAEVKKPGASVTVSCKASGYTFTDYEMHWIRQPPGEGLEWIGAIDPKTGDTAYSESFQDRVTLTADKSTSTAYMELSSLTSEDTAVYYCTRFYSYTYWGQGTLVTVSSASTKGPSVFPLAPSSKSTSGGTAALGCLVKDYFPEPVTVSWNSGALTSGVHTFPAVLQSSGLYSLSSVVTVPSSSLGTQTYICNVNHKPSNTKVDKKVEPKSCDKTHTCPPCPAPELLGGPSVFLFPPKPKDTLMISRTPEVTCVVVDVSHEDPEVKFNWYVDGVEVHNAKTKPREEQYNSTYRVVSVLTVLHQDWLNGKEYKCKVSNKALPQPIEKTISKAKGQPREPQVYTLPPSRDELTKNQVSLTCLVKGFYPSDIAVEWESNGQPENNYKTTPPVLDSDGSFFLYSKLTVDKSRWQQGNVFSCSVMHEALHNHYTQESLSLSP
light: DIVMTQSPLSLPVTPGEPASISCQASESLVHSNRNTYLHWYLQKPGQSPQLLIYKVSNRFSGVPDRFSGSGSGTDFTLKISRVEAEDVGVYYCSQNTHVPPTFGQGTKVEIERTVAAPSVFIFPPSDEQLKSGTASVVCLLNNFYPREAKVQWKVDNALQSGNSQESVTEQDSKDSTYSLSSTLTLSKADYEKHKVYACEVTHQGLSSPVTKSFNRGEC
notes: also called Ho Ab A330_19Q
B13: GpH7-B3 variant K334_19Q/GpL16-k0 (antibody, human IgG1, kappa)
heavy: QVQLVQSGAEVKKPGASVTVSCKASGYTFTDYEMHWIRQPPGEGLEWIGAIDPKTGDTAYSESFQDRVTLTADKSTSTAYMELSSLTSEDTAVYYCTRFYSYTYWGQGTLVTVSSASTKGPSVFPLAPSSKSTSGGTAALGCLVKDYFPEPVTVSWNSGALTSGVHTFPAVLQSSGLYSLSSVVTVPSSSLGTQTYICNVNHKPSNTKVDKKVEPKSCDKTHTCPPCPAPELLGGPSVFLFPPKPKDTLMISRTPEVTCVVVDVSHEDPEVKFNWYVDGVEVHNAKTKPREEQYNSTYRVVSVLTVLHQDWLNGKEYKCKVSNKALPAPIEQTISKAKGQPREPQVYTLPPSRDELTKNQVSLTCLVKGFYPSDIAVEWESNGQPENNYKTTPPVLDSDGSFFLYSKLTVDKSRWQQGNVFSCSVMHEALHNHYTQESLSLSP
light: DIVMTQSPLSLPVTPGEPASISCQASESLVHSNRNTYLHWYLQKPGQSPQLLIYKVSNRFSGVPDRFSGSGSGTDFTLKISRVEAEDVGVYYCSQNTHVPPTFGQGTKVEIERTVAAPSVFIFPPSDEQLKSGTASVVCLLNNFYPREAKVQWKVDNALQSGNSQESVTEQDSKDSTYSLSSTLTLSKADYEKHKVYACEVTHQGLSSPVTKSFNRGEC
notes: also called Ho Ab K334_19Q
B14: GpH7-B3 variant K334_13S/GpL16-k0 (antibody, human IgG1, kappa)
heavy: not shown
light: DIVMTQSPLSLPVTPGEPASISCQASESLVHSNRNTYLHWYLQKPGQSPQLLIYKVSNRFSGVPDRFSGSGSGTDFTLKISRVEAEDVGVYYCSQNTHVPPTFGQGTKVEIERTVAAPSVFIFPPSDEQLKSGTASVVCLLNNFYPREAKVQWKVDNALQSGNSQESVTEQDSKDSTYSLSSTLTLSKADYEKHKVYACEVTHQGLSSPVTKSFNRGEC
notes: also called Ho Ab K334_13S
B15: GpH7-B3 variant I336_03V/GpL16-k0 (antibody, human IgG1, kappa)
heavy: not shown
light: DIVMTQSPLSLPVTPGEPASISCQASESLVHSNRNTYLHWYLQKPGQSPQLLIYKVSNRFSGVPDRFSGSGSGTDFTLKISRVEAEDVGVYYCSQNTHVPPTFGQGTKVEIERTVAAPSVFIFPPSDEQLKSGTASVVCLLNNFYPREAKVQWKVDNALQSGNSQESVTEQDSKDSTYSLSSTLTLSKADYEKHKVYACEVTHQGLSSPVTKSFNRGEC
notes: also called Ho Ab I336_03V
B16: GpH7-B3 variant G236_15Y/GpL16-k0 (antibody, human IgG1, kappa)
heavy: not shown
light: DIVMTQSPLSLPVTPGEPASISCQASESLVHSNRNTYLHWYLQKPGQSPQLLIYKVSNRFSGVPDRFSGSGSGTDFTLKISRVEAEDVGVYYCSQNTHVPPTFGQGTKVEIERTVAAPSVFIFPPSDEQLKSGTASVVCLLNNFYPREAKVQWKVDNALQSGNSQESVTEQDSKDSTYSLSSTLTLSKADYEKHKVYACEVTHQGLSSPVTKSFNRGEC
notes: also called Ho Ab G236_15Y
B17: GpH7-B3 variant G236_14T/GpL16-k0 (antibody, human IgG1, kappa)
heavy: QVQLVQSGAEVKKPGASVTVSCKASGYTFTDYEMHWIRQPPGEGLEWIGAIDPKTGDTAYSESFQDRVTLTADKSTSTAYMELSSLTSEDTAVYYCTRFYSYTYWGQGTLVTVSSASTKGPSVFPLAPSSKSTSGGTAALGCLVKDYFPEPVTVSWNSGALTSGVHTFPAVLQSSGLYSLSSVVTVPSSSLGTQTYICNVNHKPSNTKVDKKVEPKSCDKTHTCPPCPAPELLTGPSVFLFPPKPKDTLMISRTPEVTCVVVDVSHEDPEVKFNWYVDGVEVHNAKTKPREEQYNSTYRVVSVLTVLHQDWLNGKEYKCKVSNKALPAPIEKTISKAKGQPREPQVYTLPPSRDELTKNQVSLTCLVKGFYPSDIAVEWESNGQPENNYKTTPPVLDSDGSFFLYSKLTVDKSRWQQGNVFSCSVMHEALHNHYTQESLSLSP
light: DIVMTQSPLSLPVTPGEPASISCQASESLVHSNRNTYLHWYLQKPGQSPQLLIYKVSNRFSGVPDRFSGSGSGTDFTLKISRVEAEDVGVYYCSQNTHVPPTFGQGTKVEIERTVAAPSVFIFPPSDEQLKSGTASVVCLLNNFYPREAKVQWKVDNALQSGNSQESVTEQDSKDSTYSLSSTLTLSKADYEKHKVYACEVTHQGLSSPVTKSFNRGEC
notes: also called Ho Ab G236_14T
B18: GpH7-B3 variant E333_04F/GpL16-k0 (antibody, human IgG1, kappa)
heavy: not shown
light: DIVMTQSPLSLPVTPGEPASISCQASESLVHSNRNTYLHWYLQKPGQSPQLLIYKVSNRFSGVPDRFSGSGSGTDFTLKISRVEAEDVGVYYCSQNTHVPPTFGQGTKVEIERTVAAPSVFIFPPSDEQLKSGTASVVCLLNNFYPREAKVQWKVDNALQSGNSQESVTEQDSKDSTYSLSSTLTLSKADYEKHKVYACEVTHQGLSSPVTKSFNRGEC
notes: also called Ho Ab E333_04F
B19: GpH7-A5/GpH7-B3 variant Y300_19Q/GpL16-k0 (He Ab) (antibody, human IgG1, kappa)
heavy 1: not shown
heavy 2: not shown
light: DIVMTQSPLSLPVTPGEPASISCQASESLVHSNRNTYLHWYLQKPGQSPQLLIYKVSNRFSGVPDRFSGSGSGTDFTLKISRVEAEDVGVYYCSQNTHVPPTFGQGTKVEIERTVAAPSVFIFPPSDEQLKSGTASVVCLLNNFYPREAKVQWKVDNALQSGNSQESVTEQDSKDSTYSLSSTLTLSKADYEKHKVYACEVTHQGLSSPVTKSFNRGEC
notes: Anti-glypican-3 IgG1; mutation only in the GpH7-B3-derived H chain; also called Y300Q heterodimerized antibody

Each binder was assayed against T2, FcγRIa (human, UniProt P12314 16-292) (assay: SPR (Biacore), captured antibody, FcγR as analyte, relative binding).
T2 construct: extracellular domain; Soluble extracellular domain with C-terminal His tag, used as analyte; also called FcgRI; CD64; not shown: His tag at the C terminus
Experimental: The heterodimerized antibodies He Abs in which one of the H chains was introduced with an alteration were assayed for their binding activities to each activating FcγR and inhibitory FcγR according to the method described in Example 4. […] The activating FcγRs in FIGS. 26, 27, 28, and 29 are FcγRIa, FcγRIIa (R), FcγRIIa (H), and FcγRIIIa, respectively.
(§1) Analysis of interaction between objective antibody and the FcγR was carried out using Biacore T100 (GE Healthcare). HBS-EP+ (GE Healthcare) was used as the running buffer, and the measurement temperature was set to 25° C. Chips produced by immobilizing the antigen peptide by the amine coupling method to a Series S Sencor Chip CM5 (GE Healthcare), or alternatively, chips produced by allowing preliminarily biotinylated antigen peptides to interact with and immobilize onto a Series S Sensor Chip SA (certified) (GE Healthcare) were used. Antibodies of interest were captured onto an antigen peptide-immobilized chip, and allowed to interact to each FcγR diluted with running buffer. To regenerate and repeatedly use the chip, the antibodies captured on the chip were washed off by reacting 10 mM glycine-HCl, pH 1.5.

T2 sequence (P12314 16-292): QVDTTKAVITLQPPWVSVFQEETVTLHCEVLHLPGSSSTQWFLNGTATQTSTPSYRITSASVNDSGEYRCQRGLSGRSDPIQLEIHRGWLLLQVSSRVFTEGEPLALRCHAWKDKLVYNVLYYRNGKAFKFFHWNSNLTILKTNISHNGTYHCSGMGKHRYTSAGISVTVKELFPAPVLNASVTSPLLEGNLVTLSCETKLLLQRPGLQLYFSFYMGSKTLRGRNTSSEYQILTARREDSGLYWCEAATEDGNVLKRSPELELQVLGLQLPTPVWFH

| Binder | He/Con_1a |
| --- | --- |
| B1 | 86.7 % of GpH7-A5/GpH7-B3/GpL16-k0 |

The binders below were run against FcγRIIa H (human, UniProt P12318 34-217) (assay: SPR Biacore, captured antibody, FcγR analyte; vs GpH7-B3/GpL16-k0 = 100).
FcγRIIa H, sequence (P12318 34-217): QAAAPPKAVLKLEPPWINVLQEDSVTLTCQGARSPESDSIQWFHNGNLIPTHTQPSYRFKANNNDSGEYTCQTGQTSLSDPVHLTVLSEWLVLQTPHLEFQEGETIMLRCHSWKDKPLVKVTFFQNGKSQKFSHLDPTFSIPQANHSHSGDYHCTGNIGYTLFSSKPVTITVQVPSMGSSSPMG

| Binder | Ho/Con_2aH |
| --- | --- |
| B2 | 90.1 % of control |
| B3 | 78.1 % of control |
| B4 | 63.2 % of control |
| B5 | 96.5 % of control |
| B6 | 98.2 % of control |
| B7 | 94.6 % of control |
| B8 | 94.3 % of control |
| B9 | 90.4 % of control |
| B10 | 93.4 % of control |
| B11 | 98.8 % of control |
| B12 | 99.2 % of control |
| B13 | 97.2 % of control |
| B14 | 94.9 % of control |
| B15 | 90.4 % of control |
| B16 | 80.4 % of control |
| B17 | 94.2 % of control |
| B18 | 93.6 % of control |

These binders were tested against T1, human FcγRIIb extracellular domain with … (assay: SPR (Biacore T100), antibody captured on antigen peptide chip, FcγRIIb as analyte; relative binding).
Experimental: as §1

| Binder | He/Con_2b |
| --- | --- |
| B19 | 108 % of control GpH7-A5/GpH7-B3/GpL16-k0 (=100) |
